Patent US9731011B2, “Combination tumor treatment with drug-loaded, bispecific ligand-targeted minicells and interferon-gamma” (EnGeneIC Molecular Delivery Pty Ltd, priority 2013, dated 2017)

Experiments:
Assay type in all cases: in vivo, athymic nude mice
[1] = test system: human breast tumor xenografts (MDA-MB-468); assay: Human breast cancer (MDA-MB-468) xenograft, large tumors ~250 mm^3 (Example 4); settings: start ~250 mm^3; i.v.; 1×10^9 minicells per dose; IFN-gamma 0.5×10^4 IU per dose; by day 28, 3 doses
Experimental: As described above, minicells were purified, packaged with doxorubicin and targeted using single chain bispecific antibody with anti-O-polysaccharide and anti-EGFR specificities. Human breast cancer cells (MDA-MB-468) were established as xenografts in nu/nu mice, and tumor volumes were measured, also as described above.
The treatments were begun when the tumors reached a mean of ˜250 mm^3. As above, mice were randomized to four different groups of seven mice per group. The i.v. administration and minicell doses were as above, too.
The experiment was designed as follows. Group 1 (control) received sterile physiological saline only. Group 2 (control) received IFN-gamma (0.5×10^4 IU) per dose.

[2] = test system: human alveolar adenocarcinoma tumor xenografts (A549); assay: Human alveolar adenocarcinoma (A549) xenograft, tumors ~285 mm^3 (Example 2); settings: start ~285 mm^3; i.v.; 1×10^9 minicells per dose; IFN-gamma 0.5×10^4 IU per dose; by day 43, six doses
Excerpt: As described above, minicells were produced from an S. typhimurium minCDE-mutant strain and were purified using a gradient centrifugation/filamentation/filtration/endotoxin removal procedure previously described in MacDiarmid et al. (2007). The purified minicells were packaged with chemotherapeutic drug doxorubicin, also per MacDiarmid et al. (2007).
The bispecific antibody (BsAb) was a single polypeptide containing binding specificity respectively for S. typhimurium O-polysaccharide, present on minicells, and for human EGFR, overexpressed on alveolar adenocarcinoma cells. The O-polysaccharide specificity was derived from a mouse monoclonal antibody, for which the variable regions were isolated from a hybridoma cell line and presented as a single-chain variable fragment (scFv). The hybridoma cell line was prepared by immunizing mice with purified LPS and fusing the lymphocytes with tumor cells. Subsequently, the clones were screened for an antibody capable of binding the O-polysaccharide. The EGFR specificity, also presented as an scFv, was derived from the commercial antibody Erbitux® (Bristol Myers Squibb, USA). […]
The resulting tumors were measured twice a week, using an electronic digital caliper (Mitutoyo, Japan, with a measure accuracy of +/−0.001 inch), and mean tumor volume was calculated using the formula length (mm)×width (mm^2)×0.5=volume (mm^3). […]

[3] = test system: human breast tumor xenografts (MDA-MB-468); assay: Human breast cancer (MDA-MB-468) xenograft, moderate tumors ~145 mm^3 (Example 3); settings: start ~145 mm^3; i.v.; 1×10^9 minicells per dose; IFN-gamma 0.5×10^4 IU per dose; by day 30, six doses
Experimental: As described above, minicells were purified, packaged with doxorubicin, and targeted using single chain bispecific antibody with anti-O-polysaccharide and anti-EGFR specificities. Additionally, human breast cancer cells (MDA-MB-468; ATCC) were established as xenografts in nu/nu mice, and tumor volumes were measured, also as described.
The treatments commenced when the tumors reached a mean of ˜145 mm^3, and mice were randomized to four different groups of seven mice per group. All treatments were administered i.v. in a total volume of 100 μl. All minicell doses contained 1×10^9 minicells of the respective type.
The experiment was designed as follows: Group 1 (control) received sterile physiological saline only. Group 2 (control) received IFN-gamma (0.5×10^4 IU) per dose.

Measured: anti-tumor effect (tumor volume)

B1: IFN-gamma: interferon-gamma protein; given i.v. to mice, or endogenous serum level in dogs (protein, UniProt P01580 23-155, looked up)
Interferon gamma: HGTVIESLESLNNYFNSSGIDVEEKSLFLDIWRNWQKDGDMKILQSQIISFYLRLFEVLKDNQAISNNISVIESHLITTFFSNSKAKKDAFMSIAKFEVNNPQVQRQAFNELIRVVHQLLPESSLRKRKRSRC
no anti-tumor efficacy: all assays above
